Assay results from US6881545 (Takeda / Millennium, dated 2005).
No end group written: not given here.

Biological target: T1, human pituitary-derived G protein-coupled receptor protein encoded by phGR3 (hGR3), expressed on CHO-19P2 / … (human, UniProt P49683 1-370)
T1 construct: CHO-19P2-9 is a monoclone of CHO-19P2 selected for a stronger response to 19P2-L31; also called full-length receptor protein; 19P2 receptor
T1 sequence: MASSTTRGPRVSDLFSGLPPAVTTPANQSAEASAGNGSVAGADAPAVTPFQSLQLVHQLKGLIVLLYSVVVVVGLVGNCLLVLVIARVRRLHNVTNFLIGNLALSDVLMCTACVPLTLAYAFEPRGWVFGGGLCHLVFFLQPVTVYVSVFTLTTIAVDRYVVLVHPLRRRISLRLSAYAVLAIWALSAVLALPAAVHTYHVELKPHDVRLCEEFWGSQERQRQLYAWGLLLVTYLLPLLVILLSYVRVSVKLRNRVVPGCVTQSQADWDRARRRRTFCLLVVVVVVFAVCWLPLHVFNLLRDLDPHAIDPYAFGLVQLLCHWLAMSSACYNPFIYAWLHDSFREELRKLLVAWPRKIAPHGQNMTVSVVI
Experiment: radioligand binding on live CHO-19P2-9 cells, 200 pM tracer, non-specific binding with 200 nM unlabeled 19P2-L31, filtration
Source text: As receptor-expressing CHO cells, CHO-19P2-9; mono-clone of CHO-19P2, CHO-UHR-1, and mock CHO were used in this experiment. CHO-19P2-9 cells are ones selected from CHO-19P2 cells by ultradilution technique using 96-well microplate as clone which indicated stronger arachidonic acid metabolic-release promoting reaction by 19P2-L31. The mock CHO cells are ones for control which were transformed with expression vector pAKKO alone. These cells cultured in flasks for culturing tissues were harvested with 5 mM EDTA/PBS, and then resuspended in HBSS containing 0.05% BSA and 0.05% CHAPS at 0.5 ×10^7 cells/ml. […] The reaction mixture were diluted with 2 ml of an ice-cold beffer (50 mM Tris-HCl pH7.5 containing 5 mM EDTA, 0.05% BSA, and 0.05% CHAPS) and immediately filtered though glass filters GF/F (Whattman) which were pre-wetted with the buffer containing 0.3% polyethylenimine. The glass filters were subjected to γ-counting. Non-specific binding was determined in the presence of 200 nM unlabeled 19P2-L31.

B1: [^125I]-19P2-L31 (19P2-L31 radioiodinated with [^125I]-Bolton-Hunter Reagent) (peptide)
peptide: SRAHQHSMEIRTPDINPAWYAGRGIRPVGRF-NH2
modifications: also: radioiodinated with [125I]-Bolton-Hunter reagent, site not given here
notes: also called radioiodinated 19P2-L31; radioiodinated ligand polypeptide
Question: Does B1 bind?
Answer: Result: binds
